Entries after “also recorded” stand apart in the source; their conditions may differ.
How the values were obtained:
CCR10+ EphA3+ cells = experiment: Humanized NSG mouse model of IPF: KB004 / KB243 mAb treatment (hydroxyproline, Masson's trichrome, flow cytometry); type: in vivo, human IPF cells in NSG mice
Source text: Six to eight-week old, female, pathogen free NOD Cg-Prkdc^SCID IL2rg^Tm1wil Szi (NSG) or NOD.Cg-Prkdc^SCID IL2rg^tm1Wil Tg(CAG-EGFP) 10sb/SzJ (NSG-GFP) were purchased from Jackson Laboratories and housed in Cedars-Sinai Medical Center's high isolation animal rooms. NSG mice were allowed a minimum of one week to acclimate in the facility and then these mice either received nothing (i.e., non-humanized) 1×10^6 IPF cells by intravenous injection (i.e. humanized). In most in vivo experiments, the IPF cells used were removed from liquid N2 storage, rapidly thawed, and washed in serum-free medium prior to injection into NSG mice. […] […] Other groups of humanized NSG mice received either vehicle (i.e., solutol) or BIBF1120 (Cayman Chemicals) by oral gavage beginning at day 35 after IPF cell injection. Vehicle or drug was administered 5 days a week until day 63 after IPF cell injection. All NSG groups were monitored daily and mice were sacrificed if there is evidence for morbidity such as weight loss of more than 20%, loss of fur, paralysis and/or lack of responsiveness when handled.
Murine lung cellular suspensions were generated using a mouse lung dissociation kit, C-tubes, and a GentleMacs dissociator (Miltenyi Biotech). Spleens were dissociated using a sterile rubber tip of 1 ml syringe plunger and 100 μm 50 ml tube filters (BD bioscience) as follows: isolated spleens were placed in 1 ml of sterile complete medium until all the samples were collected. Sterile 50 ml conical tube filters were placed on top of sterile 50 ml conical tubes and were equilibrated by pipetting 1 ml of calcium and magnesium free DPBS (DBPS; Cellgro) through the filters. Spleens were transferred to a sterile 50 ml filter, cellular suspensions were generated using a sterile rubber tip of a syringe plunger, and splenic material was flushed with 5 ml of DPBS. Lung and splenic cell suspensions were centrifuged and resuspended in 1 ml of RBC lysis buffer (Biolegend), incubated at room temperature for 1-2 min and then equilibrated by adding 25 ml of DPBS to each tube. Cells were centrifuged and resuspended in flow cytometric wash/staining buffer (DPBS+2% FBS) in the presence of human and mouse Fc receptor blocking antibodies (Biolegend). Cells were then stained with anti-human-CD45, -EpCAM and -CCR10 antibodies for 20 min at 4° C. Unstained, isotype controls, fluorescent minus one controls and staining in non-humanized murine lung and spleen suspensions were utilized to gate out any non-specific antibody binding and background fluorescence. CCR10 antibodies were validated via the enrichment for CCR10 transcripts in magnetically sorted CCR10^+ cells versus non-sorted normal and IPF explant cells (FIG. 35). Flow cytometric data were acquired within one week of staining using a LSR Frotessa (BD Biosciences) or MACSQuant 10 (Miltenyi Biotech) flow cytometers and data were analyzed using Flowjo software V10.2 (Treestar Inc.). The resulting gates from non-humanized NSG-GFP mice were used to identify human CD45-, EPCAM-, CCR10-, and PDGFRα-stained cells (FIGS. 36C & 21F).
Lung tissue was fixed in 10% NBF solution for 24 h and subsequently transferred into tissue cassettes and kept in a 70% ethanol solution for approximately 24 h, Lungs were then processed using routine histology techniques and stained using Masson's trichrome. A Zeiss Axio Observer Z1 microscope and the Zeiss Zen 2012 v 1.1.2.0 software (Zeiss) were used to obtain representative images.
Total lung hydroxyproline was analyzed. […] On the day of the assay, tissues were thawed and […] of distilled water (dH2O) was added to the tissues. Tissues were homogenized using a micro-sample homogenizer (Pro Scientific) as follows: the homogenizing tip was washed in 70% ethanol, then dH2O and then utilized to homogenize the tissues. The homogenizer was washed in dH2O between samples and a new batch of dH2O was utilized after 5 samples. […]

[1] = system: murine IL-2, IL-10, IL-12-p70, and TNFα; experiment: Bioplex analysis of mouse cytokines in BAL of humanized NSG mice; type: in vivo; conditions: days 0 to 35 or days 35 to 63
Description: (A-E) Murine IL-2 (A), IL-10 (B), IL12-p70 (C), IFNγ, and TNFα in the BAL from non-humanized and humanized NSG mice treated with KB004 or KB243 from days 0 to 35, or from days 35 to 63 after IPF cell injection. Mouse cytokines were measured using Bioplex and data shown are mean±sem; n=5-10/group. ****p≤0.0001
Lungs in non-humanized and humanized NSG mice were washed using 1 ml of saline solution, and the resulting BAL was centrifuged to remove cells and the supernatants were stored at −80° C. until analysis. Mouse cytokines in the BAL were measured using predesigned Bioplex assays (Bio-Rad) as recommended by the manufacturer, […]

EphA3 expressing cells = experiment: IPF explant cell challenged NOD/SCID mice treated with anti-EphA3 antibody; type: in vivo; conditions: listed as afucosylated anti-EphA3 antibody
Source text: IHC analysis indicated the presence of these cells near honeycombing cysts, in the interstitium and their expansion in IPF lung biopsies and explants relative to normal lungs.

[2] = prophylactic, 5 mg/kg days 0 to 35, day 35, flow cytometry
[3] = treatment beginning at day 7, day 35

B1: KB004: afucosylated anti-EphA3 mAb supplied by Kalobios; targets EphA3+ cells via antibody-dependent cell-mediated cytotoxicity (ADCC) (antibody, chains of the INN, looked up, V domains shown)
VH: QVQLVQSGAEVKKPGASVKVSCKASGYTFTGYWMNWVRQAPGQGLEWMGDIYPGSGNTNYDEKFQGRVTMTRDTSISTAYMELSRLRSDDTAVYYCARGGYYEDFDSWGQGTTVTVSS
VL: DIQMTQSPSFLSASVGDRVTITCRASQGIISYLAWYQQKPEKAPKRLIYAASSLQSGVPSRFSGSGSGTEFTLTISSLQPEDFATYYCGQYANYPYTFGQGTKLEIK
- development of lung fibrosis (CCR10+ EphA3+ cells; prophylactic treatment over 35 days): completely prevented
- CCR10+ CD45+ cells in lungs, KB004 versus KB243 (CCR10+ EphA3+ cells; [2]): significant reduction
- CCR10+ Lin- cells in lungs, KB004 versus KB243 (CCR10+ EphA3+ cells; [2]): significant reduction
- hydroxyproline in the lungs (CCR10+ EphA3+ cells; prophylactic, 5 mg/kg i.p. twice weekly days 0 to 35, day 35): significantly reduced
- numbers of CD45+ and Lin- CCR10+ cells and pulmonary fibrosis (CCR10+ EphA3+ cells; therapeutic treatment from days 35 to 63): failed to reduce
- histological appearance, KB243 versus KB004 (CCR10+ EphA3+ cells; therapeutic, days 35 to 63): no significant difference
- lung hydroxyproline, KB243 versus KB004 (CCR10+ EphA3+ cells; therapeutic, days 35 to 63): no significant difference
- CCR10+ cell numbers, KB243 versus KB004 (CCR10+ EphA3+ cells; therapeutic, days 35 to 63, flow cytometry): no significant difference
- hydroxyproline in humanized NSG lungs relative to non-humanized mice (CCR10+ EphA3+ cells; therapeutic, starting at day 35, day 63): elevated
- histological interstitial consolidation, KB004 compared to KB243 (CCR10+ EphA3+ cells; [3]): ameliorated
- number of CD45+ CCR10+ cells, KB004 compared to KB243 (CCR10+ EphA3+ cells; [3]): significant reduction
- lung hydroxyproline, KB004 compared to KB243 (CCR10+ EphA3+ cells; treatment beginning at day 7 after IPF cell injection, day 35): lower
- inflammation in the mouse lung (BAL murine cytokines) [1]: neither KB243 or KB004 treatments in humanized NSG mice evoked inflammation
- fibrotic response / lung remodeling (EphA3 expressing cells): ameliorated the fibrotic response; also recorded: ameliorated lung remodeling

Reference: patent US11397178B2, “Method of predicting progression of idiopathic pulmonary fibrosis and monitoring of therapeutic efficacy” (Cedars-Sinai Medical Center, priority 2016, dated 2022)
